Measured values: PMC4975489, “The Arabidopsis Protein Phosphatase PP2C38 Negatively Regulates the Central Immune Kinase BIK1” (PLoS Pathogens, 2016)

Molecular target: T1, recombinant GST-BIK1 (Arabidopsis thaliana, UniProt O48814 1-395)
T1 construct: BIK1, receptor-like cytoplasmic kinase of Arabidopsis thaliana; source: recombinant protein
T1 sequence (looked up): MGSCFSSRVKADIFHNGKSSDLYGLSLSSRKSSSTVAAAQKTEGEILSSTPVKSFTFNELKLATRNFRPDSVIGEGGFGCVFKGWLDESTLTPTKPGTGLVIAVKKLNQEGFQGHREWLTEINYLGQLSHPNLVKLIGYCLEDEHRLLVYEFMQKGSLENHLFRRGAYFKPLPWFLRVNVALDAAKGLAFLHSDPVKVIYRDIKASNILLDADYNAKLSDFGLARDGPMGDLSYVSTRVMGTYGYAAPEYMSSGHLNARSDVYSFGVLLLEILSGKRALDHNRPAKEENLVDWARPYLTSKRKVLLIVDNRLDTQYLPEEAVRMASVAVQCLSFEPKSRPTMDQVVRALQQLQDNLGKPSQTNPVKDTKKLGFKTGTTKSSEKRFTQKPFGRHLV
Assay: pull-down; recombinant MBP-PP2C38 and GST-BIK1 in column buffer (50 mM Tris pH 7.5, 50 mM NaCl, 0.2% IGEPAL CA-630), 4°C; MBP pull-down on amylose resin
Settings: both partners purified

B1: recombinant MBP-PP2C38 (enzyme, Arabidopsis thaliana, UniProt Q9LHJ9 1-385, looked up)
chain: MVSSATILRMVAPCWRRPSVKGDHSTRDANGRCDGLLWYKDSGNHVAGEFSMSVIQANNLLEDHSKLESGPVSMFDSGPQATFVGVYDGHGGPEAARFVNKHLFDNIRKFTSENHGMSANVITKAFLATEEDFLSLVRRQWQIKPQIASVGACCLVGIICSGLLYIANAGDSRVVLGRLEKAFKIVKAVQLSSEHNASLESVREELRSLHPNDPQIVVLKHKVWRVKGIIQVSRSIGDAYLKKAEFNREPLLAKFRVPEVFHKPILRAEPAITVHKIHPEDQFLIFASDGLWEHLSNQEAVDIVNTCPRNGIARKLIKTALREAAKKREMRYSDLKKIDRGVRRHFHDDITVIVVFLDSHLVSRSTSRRPLLSISGGGDLAGPST
notes: PP2C38, protein phosphatase 2C of Arabidopsis thaliana (At3g12620); 'PP2C38 CDS was inserted between BamHI and SalI restriction sites of pMAL-c4E'; source: recombinant protein (PP2C38 CDS in pMAL-c4E, NEB)
B1: binds.
